What was measured:
[1] = molecular target: T1, RING1B (human, UniProt Q99496 1-336); assay: MST; UbcH5c labelled with NT-547 at 100 nM; RING1B (from 80 uM at 2x) or RING1B-PCGF2 (from 38 uM at 2x) in 16 serial dilutions; HEPES 50 mM pH 8, NaCl 75 mM, DTT 1 mM, Tween 0.05%; Monolith NT.115, LED 20%, MST power 40%; details: both partners purified
T1 construct: RING1B, human, catalytic E3 ligase subunit of PRC1; called full length in the discussion; primers run from the second codon to the stop codon; no cleavage of the tag is described; also called strep-tagged RING1B; catalytic subunit RING1B; source: Sf21 insect cells (MultiBac baculovirus), alone or co-expressed with other PRC1 subunits; in lysate and purified (strep-tactin resin, two S200 SEC …)
T1 sequence (looked up): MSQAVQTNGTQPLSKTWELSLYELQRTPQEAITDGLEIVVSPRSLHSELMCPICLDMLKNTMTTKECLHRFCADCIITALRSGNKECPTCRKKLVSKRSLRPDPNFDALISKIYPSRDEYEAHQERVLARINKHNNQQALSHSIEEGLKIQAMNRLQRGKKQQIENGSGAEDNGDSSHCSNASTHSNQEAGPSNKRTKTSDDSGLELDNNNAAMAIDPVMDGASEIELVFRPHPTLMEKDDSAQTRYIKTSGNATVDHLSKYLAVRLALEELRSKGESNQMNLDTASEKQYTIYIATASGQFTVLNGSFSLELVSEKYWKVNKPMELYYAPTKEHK

[2] = molecular target: T2, RING1B-PCGF2 heterodimer (human, UniProt Q99496 1-336; P35227 1-344); assay: as above; details: both partners purified
T2 construct: RING1B, human, full length; the same chain as m1; PCGF2 (aka Mel18), human, full length; the same chain as m2; Pre-formed complex titrated as one molecule against UbcH5c; also called RING1B-PCGF2 subcomplex; source: Sf21 insect cells (MultiBac co-expression), purified (strep-tactin resin, two S200 SEC steps)
T2 sequence (looked up) 1: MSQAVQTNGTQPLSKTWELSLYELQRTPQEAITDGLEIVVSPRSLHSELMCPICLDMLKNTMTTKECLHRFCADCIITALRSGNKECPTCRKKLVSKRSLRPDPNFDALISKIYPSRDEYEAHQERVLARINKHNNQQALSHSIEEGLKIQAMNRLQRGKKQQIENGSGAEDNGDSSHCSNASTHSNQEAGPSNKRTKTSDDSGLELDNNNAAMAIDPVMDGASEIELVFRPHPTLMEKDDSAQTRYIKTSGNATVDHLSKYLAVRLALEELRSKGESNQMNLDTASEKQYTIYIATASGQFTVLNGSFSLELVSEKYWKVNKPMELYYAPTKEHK
T2 sequence (looked up) 2: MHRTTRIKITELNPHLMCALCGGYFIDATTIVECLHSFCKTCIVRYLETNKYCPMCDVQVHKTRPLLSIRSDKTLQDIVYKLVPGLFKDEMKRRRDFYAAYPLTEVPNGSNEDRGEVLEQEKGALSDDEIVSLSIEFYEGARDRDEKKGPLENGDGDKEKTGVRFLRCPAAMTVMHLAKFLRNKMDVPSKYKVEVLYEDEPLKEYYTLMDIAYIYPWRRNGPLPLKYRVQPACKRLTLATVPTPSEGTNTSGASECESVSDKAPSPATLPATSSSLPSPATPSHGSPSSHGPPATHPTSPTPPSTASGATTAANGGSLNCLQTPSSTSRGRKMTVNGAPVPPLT

Kd [1]: 230 ± 80 nM
Kd [2]: 4100 ± 1000 nM
B1: UbcH5c (enzyme)
chain: not shown
modifications: NT-547 fluorescent dye on Cys85
notes: UbcH5c, ubiquitin-conjugating E2 enzyme; also called UbcH5c E2 enzyme; E2 enzyme; source: E. coli Rosetta (DE3), purified (GST resin, 3C cleavage, Ni-NTA flow-through, S200 SEC)

Reference: publication PMC6771824, “Topology and enzymatic properties of a canonical Polycomb repressive complex 1 isoform” (Febs Letters, 2019)
